T1: α2-纤溶酶抑制剂(α2-AP) (UniProt P08697 40-491, limits assumed)
T1 construct: also called α2-antiplasmin; 游离态的α2-AP
T1 sequence (looked up): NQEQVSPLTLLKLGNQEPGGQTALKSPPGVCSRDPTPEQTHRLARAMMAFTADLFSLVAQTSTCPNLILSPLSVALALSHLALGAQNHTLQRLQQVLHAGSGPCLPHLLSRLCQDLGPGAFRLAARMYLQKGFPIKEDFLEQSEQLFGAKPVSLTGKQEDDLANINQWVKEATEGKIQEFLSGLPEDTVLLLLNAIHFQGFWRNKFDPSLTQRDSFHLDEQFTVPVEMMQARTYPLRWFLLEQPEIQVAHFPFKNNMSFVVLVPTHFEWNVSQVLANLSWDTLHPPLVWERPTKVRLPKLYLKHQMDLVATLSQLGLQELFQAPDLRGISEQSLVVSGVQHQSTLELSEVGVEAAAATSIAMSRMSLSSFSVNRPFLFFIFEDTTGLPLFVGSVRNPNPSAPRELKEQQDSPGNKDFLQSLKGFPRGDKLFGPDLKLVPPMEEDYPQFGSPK

B1: PIC抗体(WT1) (antibody, mouse IgG1, kappa, V domains shown)
VH: QVQLQQSGPELVKPGASVKLSCKASGNAFSSSWMNWVKQRPGQGLEWIGRIYPGDGDTNYNGKFKGKATLTVDKSSSTVYMQLSSLTSVDSAVYFCGRGNPTTAYAMDYWGQGTSVTVSS
VL: DIVLTQSPASLAVSLGQRATLSCRASESVDSFGYSFMHWYQQNPGQPPKLLIYRASNLESGIPARFSGSGSRTDFTLTINPVEADDVATYFCQQTNEDPYTFGGGAKLEIKR
notes: that VL1/VH1 belong to 1C2B4 (WT1) follows from the order of naming, not from an explicit sentence; also called 1C2B4; PIC单抗(WT1)
B2: PIC抗体(WT2) (antibody, mouse IgG1, kappa, V domains shown)
VH: QVQLQQPGAELVRPGASVKLSCKASGYTFTSSWMHWVKQRPEQGLEWIGYIDPYDSETHYNQKFKDKAILTVDKSSSTAYMQLSSLTSEDSAVYYCARGYDRSFDYWGQGTTLTVSS
VL: DIKMTQSPSSMFASLGERVTITCKASQDIKSFLNWYQQKPWRSPKTLIYYATSLADGVPSRFSGSGSGQDFSLTISSLESDDAATYYCLQHGESPFTFGGGTKLEIKR
notes: That VL2/VH2 belong to 5B3F6 (WT2) follows from the order of naming, not from an explicit sentence; also called 5B3F6; PIC单抗(WT2)

Assays:
[1] = biological target: T2, 纤溶酶原(Plg) (UniProt P00747 20-810); test: summing-up of the examples (ELISA specificity, Example 4; table 2 not shown)
T2 construct: Free precursor, used as coating antigen in ELISA; also called Plasminogen; 游离态的Plg
T2 sequence (P00747 20-810 limits assumed): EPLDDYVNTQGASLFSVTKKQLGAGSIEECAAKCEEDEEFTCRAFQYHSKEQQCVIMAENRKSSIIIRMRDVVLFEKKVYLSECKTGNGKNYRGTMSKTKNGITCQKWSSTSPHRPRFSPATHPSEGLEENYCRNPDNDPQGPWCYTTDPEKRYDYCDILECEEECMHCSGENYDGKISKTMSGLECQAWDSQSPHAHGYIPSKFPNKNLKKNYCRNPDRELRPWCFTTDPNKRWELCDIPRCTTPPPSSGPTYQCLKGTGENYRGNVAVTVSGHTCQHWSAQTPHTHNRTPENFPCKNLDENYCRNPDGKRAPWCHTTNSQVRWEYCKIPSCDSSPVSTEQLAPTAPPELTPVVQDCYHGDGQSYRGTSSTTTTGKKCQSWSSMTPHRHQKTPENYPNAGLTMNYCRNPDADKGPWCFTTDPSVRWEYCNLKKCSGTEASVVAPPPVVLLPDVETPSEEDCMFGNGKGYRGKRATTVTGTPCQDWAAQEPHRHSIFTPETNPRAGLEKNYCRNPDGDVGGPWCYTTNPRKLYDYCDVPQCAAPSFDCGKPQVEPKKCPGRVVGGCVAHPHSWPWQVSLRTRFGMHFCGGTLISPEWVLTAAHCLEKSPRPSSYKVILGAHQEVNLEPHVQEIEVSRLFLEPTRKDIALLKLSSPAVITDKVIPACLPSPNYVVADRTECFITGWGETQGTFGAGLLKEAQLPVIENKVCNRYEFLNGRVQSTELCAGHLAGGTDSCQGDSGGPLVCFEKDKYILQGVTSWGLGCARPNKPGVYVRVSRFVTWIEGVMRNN

[2] = biological target: T1, α2-纤溶酶抑制剂(α2-AP); test: as above
[3] = biological target: T3, 纤溶酶-α2纤溶酶抑制剂复合物(PIC) (UniProt P00747 97-810; P08697 40-491, limits assumed); test: SPR (BIAcore 3000), antibody captured by goat anti-mouse IgG Fc on CM5, PIC as analyte
T3 construct: also called PIC抗原; PIC复合物
T3 sequence (P00747 97-810 limits assumed, one chain of several): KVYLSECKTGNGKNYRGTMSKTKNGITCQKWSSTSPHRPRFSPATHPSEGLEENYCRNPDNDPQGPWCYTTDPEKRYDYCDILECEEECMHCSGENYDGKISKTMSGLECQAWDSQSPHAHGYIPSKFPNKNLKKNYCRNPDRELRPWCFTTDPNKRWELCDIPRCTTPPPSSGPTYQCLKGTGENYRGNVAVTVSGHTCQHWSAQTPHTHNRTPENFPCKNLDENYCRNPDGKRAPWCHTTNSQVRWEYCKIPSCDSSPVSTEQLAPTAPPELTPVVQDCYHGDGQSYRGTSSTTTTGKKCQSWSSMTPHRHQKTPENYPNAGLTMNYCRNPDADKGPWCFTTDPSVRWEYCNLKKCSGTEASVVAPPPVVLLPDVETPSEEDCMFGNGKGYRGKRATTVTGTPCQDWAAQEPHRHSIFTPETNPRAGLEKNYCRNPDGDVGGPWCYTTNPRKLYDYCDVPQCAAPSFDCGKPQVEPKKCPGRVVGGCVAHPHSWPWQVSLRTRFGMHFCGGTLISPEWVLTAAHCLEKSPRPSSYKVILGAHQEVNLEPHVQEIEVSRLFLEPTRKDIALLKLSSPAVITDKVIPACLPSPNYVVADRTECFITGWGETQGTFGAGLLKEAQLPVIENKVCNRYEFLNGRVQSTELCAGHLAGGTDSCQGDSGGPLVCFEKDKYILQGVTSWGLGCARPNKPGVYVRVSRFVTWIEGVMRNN

Binder	binding result [1]	binding result [2]	Kd [3] [nM]	koff [3] [s⁻¹]	kon [3] [M⁻¹ s⁻¹]
B1	no binding	no binding	1.29	8.54e-05	65900
B2	no binding	no binding	1.21	9.54e-05	78900

Reference: patent CN117126283A (SHENZHEN NEW IND BIOMEDICAL ENGINEERING CO LTD, dated 2023)
